Results: patent publication US20240093191A1, “COMPOSITIONS AND METHODS FOR TREATING DISEASE ASSOCIATED WITH DUX4 OVEREXPRESSION” (RESEARCH INSTITUTE AT NATIONWIDE CHILDREN'S HOSPITAL, priority 2021, published 2024)

B1: H1.mir-675: commercially available H1 promoter mir-675 expression plasmid (SBI Biosciences) (nucleic acid)
DNA: GAACGCTGACGTCATCAACCCGCTCCAAGGAATCGCGGGCCCAGTGTCACTAGGCGGGAACACCCAGCGCGCGTGCGCCCTGGCAGGAAGATGGCTGTGAGGGACAGGGGAGTGGCGCCCTGCAATATTTGCATGTCGCTATGTGTTCTGGGAAATCACCATAAACGTGAAATGTCTTTGGATTTGGGAATCTTATAAGTTCTGTATGAGACCACCCCCCAGGGTCTGGTGCGGAGAGGGCCCACAGTGGACTTGGTGACGCTGTATGCCCTCACCGCTCAGCCCCTGGGGAATTCTTCGATTCTGCTTTTTT
B2: U6.mi405G: mi405 construct with altered flanking sequences (nucleic acid)
DNA: ACGCCGCCATCTCTAGGCCCGCGCCGGCCCCCTCGCACAGACTTGTGGGAGAAGCTCGGCTACTCCCCTGCCCCGGTTAATTTGCATATAATATTTCCTAGTAACTATAGAGGCTTAATGTGCGATAAAAGACAGATAATCTGTTCTTTTTAATACTAGCTACATTTTACATGATAGGCTTGGATTTCTATAAGAGATACAAATACTAAATTATTATTTTAAAAAACAGCACAAAAGGAAACTCACCCTAACTGTAAAGTAATTGTGTGTTTTGAGACTATAAATATCCCTTGGAGAAAAGCCTTGTTTGACCGTTTAAACTCGAGTGAGCGATCCAGGATTCAGATCTGGTTTCTGTAAAGCCACAGATGGGAAACCAGATCTGAATCCTGGACTGCCTACTAGAGAATTCTTCGATTCTGCTTTTTT
B3: U6.mi405F: mi405 with one G at 5' end and 16 mer 3' flanking sequence with single CNNC motif (nucleic acid)
DNA: ACGCCGCCATCTCTAGGCCCGCGCCGGCCCCCTCGCACAGACTTGTGGGAGAAGCTCGGCTACTCCCCTGCCCCGGTTAATTTGCATATAATATTTCCTAGTAACTATAGAGGCTTAATGTGCGATAAAAGACAGATAATCTGTTCTTTTTAATACTAGCTACATTTTACATGATAGGCTTGGATTTCTATAAGAGATACAAATACTAAATTATTATTTTAAAAAACAGCACAAAAGGAAACTCACCCTAACTGTAAAGTAATTGTGTGTTTTGAGACTATAAATATCCCTTGGAGAAAAGCCTTGTTTGCTCGAGTGAGCGATCCAGGATTCAGATCTGGTTTCTGTAAAGCCACAGATGGGAAACCAGATCTGAATCCTGGACTGCCTACTAGTAATTCTTCGATTCTGCTTTTTT
B4: U6.mir-675: U6 promoter-driven mir-675 expression plasmid with 40 nt 5' and 47 nt 3' flanking sequences (nucleic acid)
DNA: GACGCCGCCATCTCTAGGCCCGCGCCGGCCCCCTCGCACAGACTTGTGGGAGAAGCTCGGCTACTCCCCTGCCCCGGTTAATTTGCATATAATATTTCCTAGTAACTATAGAGGCTTAATGTGCGATAAAAGACAGATAATCTGTTCTTTTTAATACTAGCTACATTTTACATGATAGGCTTGGATTTCTATAAGAGATACAAATACTAAATTATTATTTTAAAAAACAGCACAAAAGGAAACTCACCCTAACTGTAAAGTAATTGTGTGTTTTGAGACTATAAATATCCCTTGGAGAAAAGCCTTGTTTGCGTTTAGTGAACCGTCAGATGGTACCGTTTAAACTCGAGCCCAGGGTCTGGTGCGGAGAGGGCCCACAGTGGACTTGGTGACGCTGTATGCCCTCACCGCTCAGCCCCTGGGACTAGAGCGGCCGCCACAGCGGGGAGATCCAGACATGATAAGATACATTTTTT
B5: U6.mi405H: mi405 construct with altered flanking sequences (nucleic acid)
DNA: ACGCCGCCATCTCTAGGCCCGCGCCGGCCCCCTCGCACAGACTTGTGGGAGAAGCTCGGCTACTCCCCTGCCCCGGTTAATTTGCATATAATATTTCCTAGTAACTATAGAGGCTTAATGTGCGATAAAAGACAGATAATCTGTTCTTTTTAATACTAGCTACATTTTACATGATAGGCTTGGATTTCTATAAGAGATACAAATACTAAATTATTATTTTAAAAAACAGCACAAAAGGAAACTCACCCTAACTGTAAAGTAATTGTGTGTTTTGAGACTATAAATATCCCTTGGAGAAAAGCCTTGTTTGACCGTTTAAACTCGAGTGAGCGATCCAGGATTCAGATCTGGTTTCTGTAAAGCCACAGATGGGAAACCAGATCTGAATCCTGGACTGCCTACTAGAGCGCACGCCAGTTTTTT

What was measured:
Assay type in all cases: cell-based, human
DUX4 protein = assay: Western blot of V5-tagged DUX4 protein in co-transfected HEK293 cells; conditions: for Average inhibition efficiency (%) of DUX4 protein levels: CMV.DUX4-FL/CMV.eGFP, molar ratio 1 to 3, eGFP normalizer, relative to U6-milacZ, N = 3-8; for Average inhibition efficiency (%) of DUX4 protein levels / reduction of DUX4 protein levels compared to U6.miGFP / reduction of DUX4 protein levels compared to U6.mi405F / reduction of DUX4 protein levels relative to U6.mi405 / reduction of DUX4 protein levels: HEK293; for effect on DUX4 protein level (DUX4-FL WT): FIG. 18, HEK293 western blot; for reduction of DUX4 protein levels compared to U6.miGFP: DUX4:mi405 molar ratio 2 to 1; for reduction of DUX4 protein levels compared to U6.mi405F / reduction of DUX4 protein levels relative to U6.mi405: molar ratio 12 to 1, N=4
mir-675-5p = assay: Small-transcript northern blot of mir-675 processing in HEK293 cells; conditions: for mature mir-675-5p bands on northern blot: HEK293, anti-mir-675-5p biotinylated probe
Excerpt: Small-Transcript Northern Blots. […] (SEQ ID NO: 148)).

[1] = test system: DUX4 ORF (RenLuc-DUX4 ORF); assay: Dual-luciferase assay, RenLuc-DUX4 ORF reporter co-transfected with miDUX4 plasmids in HEK293 cells; conditions: for reduction of Renilla luciferase activity: normalized to U6.miGFP
Procedure, shortened: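 HEK293 cells were co-transfected by lipofection with a psiCheck2 reporter carrying the DUX4 ORF as the Renilla luciferase 3′UTR and U6-driven miDUX4 plasmids, at increasing reporter:miRNA molar ratios. Renilla/Firefly ratio was read 24 h or 48 h post-transfection, with Firefly as transfection normaliser. Values are means ± SEM of triplicates over 3 experiments.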

[2] = DUX4:mi405 molar ratio 2 to 1, HEK293, 24 h
[3] = DUX4:mi405 molar ratio 12 to 1, HEK293, 24 h

Molecule	Average inhibition efficiency (%) of DUX4 protein levels (DUX4 protein)	effect on DUX4 protein level (DUX4-FL WT) (DUX4 protein)	mature mir-675-5p bands on northern blot (mir-675-5p)	reduction of Renilla luciferase activity [1, 2]	additional reduction of Renilla luciferase activity compared to U6.mi405F ([1]; DUX4:mi405 molar ratio 12 to 1)	reduction of Renilla luciferase activity [1, 3]	reduction of DUX4 protein levels compared to U6.miGFP (DUX4 protein; 24 h)	reduction of DUX4 protein levels compared to U6.mi405F (DUX4 protein; 24 h)	reduction of DUX4 protein levels relative to U6.mi405 (DUX4 protein; 24 h)	also measured
B1	68 ± 5 (N = 4) %	reduce DUX4 protein level	abundant levels of the mature mir-675-5p							mature mir-675-5p produced at 48h versus 24h post-transfection (mir-675-5p): 1.4 fold; mature mir-675-5p abundance relative to U6.mir-675-generated (mir-675-5p; 24 h post-transfection): 13 fold; mature mir-675-5p abundance relative to U6.mir-675-generated (mir-675-5p; 48 h post-transfection): 23 fold
B2				81±1%	26±5%	59±2%	88±2%	52±9%	71±5%	
B3				77±1%		45±4%	81±9%		40±5%	reduction of relative Renilla luciferase activity ([1]; 1:4 DUX4:mi405 molar ratio, HEK293, 24 h, normalized to miGFP): 89±1%; decrease of relative Renilla luciferase activity compared to U6.mi405 ([1]; DUX4:mi405 molar ratio 8:1, 24 h): 48±6%; decrease of relative Renilla luciferase activity compared to U6.mi405 ([1]; DUX4:miDUX4 molar ratio 1:1): 33±2%; decrease of relative Renilla luciferase activity compared to U6.mi405 ([1]; DUX4:miDUX4 molar ratio 1:2): 32±2%; decrease of relative Renilla luciferase activity compared to U6.mi405 ([1]; DUX4:miDUX4 molar ratio 1:3): 34±1%; decrease of relative Renilla luciferase activity compared to U6.mi405 ([1]; DUX4:miDUX4 molar ratio 1:4): 32±1%; relative Renilla luciferase activity reached ([1]; DUX4:miDUX4 molar ratio 8:1): 38±2%; more efficient than U6.mi405 in reducing relative Renilla luciferase activity ([1]; DUX4:miDUX4 molar ratio 40:1): 13±2%; increase of inhibition efficiency compared to U6.mi405 (western blot) (DUX4 protein; 1:4 DUX4:mi405 molar ratio, 24 h): 20%; reduction of DUX4 protein levels (DUX4 protein; 1:4 DUX4:mi405 molar ratio, 24 h, normalized to miGFP, N=2): 99±1%
B4	43±4%	reduce DUX4 protein level	low levels of the mature mir-675-5p							reduction of DUX4 protein levels (DUX4 protein; AAV.CMV.DUX4-FL co-transfection, 24 h, β-actin normalizer, relative to U6.milacZ): 46±11%
B5				80±1%	25±6%	58±2%	79±6%	33±14%	60±8%	
